From patent US20260274985A1 (MYTHIC THERAPEUTICS, published 2026)
Substitutions are numbered along the chain they refer to.

T1: Human TROP2 Protein, His Tag (Acro Biosystems) (human, UniProt P09758 27-274)
T1 construct: Bought protein; not shown: His tag
T1 sequence (looked up): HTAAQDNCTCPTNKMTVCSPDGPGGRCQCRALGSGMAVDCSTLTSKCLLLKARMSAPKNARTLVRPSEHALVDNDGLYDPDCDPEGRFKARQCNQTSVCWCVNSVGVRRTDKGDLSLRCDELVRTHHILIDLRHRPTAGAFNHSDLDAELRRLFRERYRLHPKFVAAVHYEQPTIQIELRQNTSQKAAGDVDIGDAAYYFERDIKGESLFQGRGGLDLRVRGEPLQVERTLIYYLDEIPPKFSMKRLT

B1: MYT11567 (antibody, V domains shown)
VH: QVQLQQSGSELKKPGASVKVSCKASHYTFTNYGMNWVKQAPGQGLKWMGWINTYTGEPTYTDDFKGRFAFSLDTSVSTAYLQISSLKADDTAVYFCARGGFGSSYWYFDVWGQGSLVTVSS
VL: DIQLTQSPSSLSASVGDRVSITCKASQDVSIAVAWYQQKPGKAPKLLIYSASYRYTGVPDRFSGSGSGTDFTLTISSLQPEDFAVYYCQQHYITPLTFGAGTKVEIK
notes: Sacituzumab variant, His at HCV position 26 (H1 01)
B2: MYT11611 (antibody, V domains shown)
VH: B1 VH with H26G
VL: B1 VL with Q27H
notes: Sacituzumab variant, His at LCV position 27 (L1 04)
B3: MYT11568 (antibody, V domains shown)
VH: B1 VH with H26G, Y27H
VL: B1 VL
notes: Sacituzumab variant, His at HCV position 27 (H1 02)
B4: MYT11601 (antibody, V domains shown)
VH: B1 VH with H26G, S104H
VL: B1 VL
notes: Sacituzumab variant, His at HCV position 104 (H3 08)
B5: MYT11598 (antibody, V domains shown)
VH: B1 VH with H26G, F101H
VL: B1 VL
notes: Sacituzumab variant, His at HCV position 101 (H3 05)
B6: MYT11589 (antibody, V domains shown)
VH: B1 VH with H26G, D62H
VL: B1 VL
B7: MYT11585 (antibody, V domains shown)
VH: B1 VH with H26G, P58H
VL: B1 VL
notes: Sacituzumab variant, His at HCV position 58 (H2 09)
B8: MYT11580 (antibody, V domains shown)
VH: B1 VH with H26G, T53H
VL: B1 VL
notes: Sacituzumab variant, His at HCV position 53 (H2 04)
B9: MYT11605 (antibody, V domains shown)
VH: B1 VH with H26G, F108H
VL: B1 VL
B10: MYT11569 (antibody, V domains shown)
VH: B1 VH with H26G, T28H
VL: B1 VL
notes: Sacituzumab variant, His at HCV position 28 (H1 03)
B11: MYT11579 (antibody, V domains shown)
VH: B1 VH with H26G, N52H
VL: B1 VL
notes: Sacituzumab variant, His at HCV position 52 (H2 03)
B12: MYT11581 (antibody, V domains shown)
VH: B1 VH with H26G, Y54H
VL: B1 VL
notes: Sacituzumab variant, His at HCV position 54 (H2 05)
B13: MYT11571 (antibody, V domains shown)
VH: B1 VH with H26G, T30H
VL: B1 VL
notes: Sacituzumab variant, His at HCV position 30 (H1 05)
B14: MYT11582 (antibody, V domains shown)
VH: B1 VH with H26G, T55H
VL: B1 VL
notes: Sacituzumab variant, His at HCV position 55 (H2 06)
B15: MYT11595 (antibody, V domains shown)
VH: B1 VH with H26G, R98H
VL: B1 VL
notes: Sacituzumab variant, His at HCV position 98 (H3 02)
B16: MYT11594 (antibody, V domains shown)
VH: B1 VH with H26G, A97H
VL: B1 VL
notes: Sacituzumab variant, His at HCV position 97 (H3 01)
B17: MYT11610 (antibody, V domains shown)
VH: B1 VH with H26G
VL: B1 VL with S26H
notes: Sacituzumab variant, His at LCV position 26 (L1 03)
B18: MYT11602 (antibody, V domains shown)
VH: B1 VH with H26G, Y105H
VL: B1 VL
B19: MYT11612 (antibody, V domains shown)
VH: B1 VH with H26G
VL: B1 VL with D28H
notes: Sacituzumab variant, His at LCV position 28 (L1 05)
B20: MYT11608 (antibody, V domains shown)
VH: B1 VH with H26G
VL: B1 VL with K24H
notes: Sacituzumab variant, His at LCV position 24 (L1 01)
B21: MYT11609 (antibody, V domains shown)
VH: B1 VH with H26G
VL: B1 VL with A25H
notes: Sacituzumab variant, His at LCV position 25 (L1 02)
B22: MYT11607 (antibody, V domains shown)
VH: B1 VH with H26G, V110H
VL: B1 VL
notes: Sacituzumab variant, His at HCV position 110 (H3 14)
B23: MYT11593 (antibody, V domains shown)
VH: B1 VH with H26G, G66H
VL: B1 VL
B24: MYT11588 (antibody, V domains shown)
VH: B1 VH with H26G, T61H
VL: B1 VL
notes: Sacituzumab variant, His at HCV position 61 (H2 12)
B25: MYT11596 (antibody, V domains shown)
VH: B1 VH with H26G, G99H
VL: B1 VL
B26: MYT11577 (antibody, V domains shown)
VH: B1 VH with H26G, W50H
VL: B1 VL
B27: MYT11572 (antibody, V domains shown)
VH: B1 VH with H26G, N31H
VL: B1 VL
notes: Sacituzumab variant, His at HCV position 31 (H1 06)
B28: MYT11591 (antibody, V domains shown)
VH: B1 VH with H26G, F64H
VL: B1 VL
notes: Sacituzumab variant, His at HCV position 64 (H2 15)
B29: MYT11570 (antibody, V domains shown)
VH: B1 VH with H26G, F29H
VL: B1 VL
notes: Sacituzumab variant, His at HCV position 29 (H1 04)
B30: MYT11584 (antibody, V domains shown)
VH: B1 VH with H26G, E57H
VL: B1 VL
notes: Sacituzumab variant, His at HCV position 57 (H2 08)
B31: MYT11578 (antibody, V domains shown)
VH: B1 VH with H26G, I51H
VL: B1 VL
notes: Sacituzumab variant, His at HCV position 51 (H2 02)
B32: MYT11575 (antibody, V domains shown)
VH: B1 VH with H26G, M34H
VL: B1 VL
notes: Sacituzumab variant, His at HCV position 34 (H1 09)
B33: MYT11590 (antibody, V domains shown)
VH: B1 VH with H26G, D63H
VL: B1 VL
notes: Sacituzumab variant, His at HCV position 63 (H2 14)
B34: MYT11587 (antibody, V domains shown)
VH: B1 VH with H26G, Y60H
VL: B1 VL
B35: MYT11573 (antibody, V domains shown)
VH: B1 VH with H26G, Y32H
VL: B1 VL
B36: MYT11574 (antibody, V domains shown)
VH: B1 VH with H26G, G33H
VL: B1 VL
B37: MYT11586 (antibody, V domains shown)
VH: B1 VH with H26G, T59H
VL: B1 VL
notes: Sacituzumab variant, His at HCV position 59 (H2 10)
B38: MYT11576 (antibody, V domains shown)
VH: B1 VH with H26G, N35H
VL: B1 VL
notes: Sacituzumab variant, His at HCV position 35 (H1 10)
B39: MYT11592 (antibody, V domains shown)
VH: B1 VH with H26G, K65H
VL: B1 VL

Target: T1, Human TROP2 Protein, His Tag (Acro …)
Experiment: BLI (Octet)
Procedure: After allowing for four days of protein expression, cell culture supernatants were collected, quantified by SDS-PAGE analysis (DNS), and the pH dependence of the variant was evaluated using biolayer interferometry (BLI) on an Octet RED 96e instrument. Briefly, cell culture supernatants were diluted based on qualitative expression level of the variant determined by visual examination of SDS-PAGE gels, 5 μL of cell culture supernatant was diluted into 195 μL of 1×PBST, pH 7.4 for high expressors, 25 μL of cell culture supernatant was diluted into 175 μL of 1×PBST, pH 7.4 for medium expressors and 100 μL of cell culture supernatant was diluted into 100 μL of 1×PBST, pH 7.4 for low expressors for loading onto the sensor tips. The resulting diluted supernatants were then captured on an anti-human Fc sensor (Forte Bio). A baseline was established using 1×PBST (50 mM Potassium Phosphate Buffer+150 mM NaCl+0.05% Tween 20) pH 7.4, and the sensor was associated with 50 nM of TROP2 (Human TROP2 Protein, His Tag, Acro Biosystems) in 1×PBST pH 7.4 for 120 sec to generate an association curve. In the dissociation phase, the antibody-antigen complex on the sensor was exposed to 1×PBST pH 7.4 or pH 5.4, for 300 sec. Association and dissociation phase curves were examined for the starting ABPC antibody (with no substitutions) and each corresponding antibody variant at pH 5.4 and pH 7.4 to inform on two criteria: a) enhanced dissociation (i.e., higher koff values) at pH 5.4 due to histidine or alanine substitution compared to the starting ABPC, (with no substitutions), and b) reduced dissociation at pH 7.4 (i.e., lower koff values) compared to pH 5.4 in the antibody variant itself and with the starting ABPC (with no substitutions). […] It was also noted that while some mutations obliterated TROP2 binding, others were tolerated with little or n change in TROP2 binding kinetics.

Row | Binder | binding result
1 | B1 | binds
2 | B2 | binds
3 | B3 | binds
4 | B4 | binds
5 | B5 | binds
6 | B6 | binds
7 | B7 | binds
8 | B8 | binds
9 | B9 | binds
10 | B10 | binds
11 | B11 | binds
12 | B12 | binds
13 | B13 | binds
14 | B14 | binds
15 | B15 | binds
16 | B16 | binds
17 | B17 | binds
18 | B18 | binds
19 | B19 | binds
20 | B20 | binds

Row | Binder | binding result
21 | B21 | binds
22 | B22 | binds
23 | B23 | binds
24 | B24 | binds
25 | B25 | binds
26 | B26 | binds
27 | B27 | binds
28 | B28 | binds
29 | B29 | binds
30 | B30 | binds
31 | B31 | binds
32 | B32 | binds
33 | B33 | binds
34 | B34 | binds
35 | B35 | binds
36 | B36 | binds
37 | B37 | binds
38 | B38 | binds
39 | B39 | binds
